Test results taken from US20050159354A1.

Experiments:
[1] = target: neuronal receptor for agrin, on cultured mouse cortical neurons (mouse); experiment: cell-based or functional assay
[2] = target: neuronal receptor for agrin, on cultured mouse cortical neurons (mouse); experiment: NIH Image analysis of immunofluorescence on cortical neurons; competitor C-Ag20z8 at 1:1 molar ratio (unpublished data)

“C-Ag15, 15-kD COOH-terminal fragment of mouse agrin (ligand)” gave an IC50 of inhibition of c-fos induction by 50 pM C-Ag95z8 in cortical neurons [1] of 64.5 pM and an inhibition of rescue of the agrin-deficient glutamate response by 5 nM C-Ag95z0 (10 nM C-Ag15) [1] of 54%.

“C-Ag20z0, 20-kD COOH-terminal fragment of mouse agrin, z0 splice variant (ligand)” gave an EC50 of c-fos induction in cortical neurons (in situ enzyme-linked immunoassay) [1] of 0.0133 nM and a rescue of glutamate-induced Fos expression in agrin-deficient neurons (5 nM, 2 d) [1] of 2.2 fold.

“C-Ag20z8, 20-kD COOH-terminal fragment of mouse agrin, z8 splice variant (ligand)” gave an EC50 of c-fos induction in cortical neurons (in situ enzyme-linked immunoassay) [1] of 0.0112 nM and a rescue of glutamate-induced Fos expression in agrin-deficient neurons (5 nM, 2 d) [1] of 2.2 fold.

For “C-Ag95z0, soluble 95-kD COOH terminus of mouse agrin, y4 z0 (from UniProt A2ASQ1 1144-1950) (ligand)”, the EC50 of c-fos induction in cortical neurons (in situ enzyme-linked immunoassay) [1] was 0.0119 nM.

“C-Ag95z8, soluble 95-kD COOH terminus of mouse agrin, y4 z8 (from UniProt A2ASQ1 1144-1950) (ligand)” showed an EC50 of c-fos induction in cortical neurons (in situ enzyme-linked immunoassay) [1] of 0.0127 nM.

In the case of “rC-Agy4z8, soluble 95-kD COOH-terminal fragment of rat agrin, y4z8 isoform (from UniProt P25304 1153-1951) (ligand)”, the reduction of labeling (mean pixel intensity) [2] is reported as 30%.
